Measured values: patent US20160368988A1 (MERUS N V, published 2016)

Experiments:
[1] = target: T1, human CD3, membrane-expressed (CD3/TCR complex on HPB-ALL cells or purified human T cells) (human, UniProt P07766 23-207; P04234 22-171; P09693 23-182); experiment: flow cytometry on HPB-ALL cells
T1 construct: whole, on cells; On cells CD3 stands in the complex with the TCR and the zeta chain; also called cell surface expressed CD3/TCR complexes

[2] = target: T1, human CD3, membrane-expressed (CD3/TCR …); experiment: flow cytometry on CD3+ HPB-ALL cells [panel HPB-ALL]
[3] = target: T2, recombinant purified human CLEC12A (Sino Biological Inc, cat. Nr. 11896-H07H) (human, UniProt Q5QGZ9 65-265); experiment: SPR (BIAcore T100), bsAb captured by anti-human IgG on a CM5 chip, antigen in solution; average of three measurements
T2 construct: Bought protein; also called CLEC12A protein
T2 sequence (looked up): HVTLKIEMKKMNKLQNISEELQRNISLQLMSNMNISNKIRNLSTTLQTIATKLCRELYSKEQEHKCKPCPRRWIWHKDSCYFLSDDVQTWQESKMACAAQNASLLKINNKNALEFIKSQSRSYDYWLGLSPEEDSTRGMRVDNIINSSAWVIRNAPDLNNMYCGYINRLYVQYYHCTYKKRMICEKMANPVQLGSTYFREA

[4] = target: T2, recombinant purified human CLEC12A …; experiment: SPR (BIAcore T100), ratio of the two KD values
[5] = target: T1, human CD3, membrane-expressed (CD3/TCR …); experiment: flow cytometry on HPB-ALL cells [lower panel]
[6] = target: T1, human CD3, membrane-expressed (CD3/TCR …); experiment: flow cytometry on HPB-ALL cells; remark: listed apart in the source
[7] = target: T1, human CD3, membrane-expressed (CD3/TCR …); experiment: flow cytometry on HPB-ALL cells [upper panel]
[8] = target: T1, human CD3, membrane-expressed (CD3/TCR …); experiment: flow cytometry on HPB-ALL cells [upper panel]; remark: listed apart in the source
[9] = target: T1, human CD3, membrane-expressed (CD3/TCR …); experiment: flow cytometry on HPB-ALL cells [lower panel]; remark: listed apart in the source

T1 sequence (P07766 23-207, chain 1 of 3): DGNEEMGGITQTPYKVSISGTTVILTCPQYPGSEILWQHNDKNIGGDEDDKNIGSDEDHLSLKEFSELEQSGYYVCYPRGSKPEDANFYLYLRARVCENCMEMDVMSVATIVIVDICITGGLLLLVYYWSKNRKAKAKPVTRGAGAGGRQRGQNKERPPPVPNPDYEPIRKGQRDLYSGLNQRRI
T1 sequence (P04234 22-171, chain 2 of 3): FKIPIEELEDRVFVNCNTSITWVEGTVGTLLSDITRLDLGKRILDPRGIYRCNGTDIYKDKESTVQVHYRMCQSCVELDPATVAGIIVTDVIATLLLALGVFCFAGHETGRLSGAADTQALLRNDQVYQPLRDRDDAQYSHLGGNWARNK
T1 sequence (P09693 23-182, chain 3 of 3): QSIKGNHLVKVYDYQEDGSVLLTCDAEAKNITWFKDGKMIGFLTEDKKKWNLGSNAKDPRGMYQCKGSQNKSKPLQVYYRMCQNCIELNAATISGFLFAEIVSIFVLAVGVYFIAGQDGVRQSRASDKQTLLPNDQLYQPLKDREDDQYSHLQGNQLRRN

B1: PG3873 (antibody, V domains shown)
VH: QVQLVQSGGGVVQPGRSLRLSCVASGFTFSSYGMHWVRQAPGKGLEWVAAIWYQGRKQDYADSVKGRFTISRDNSKNTLYLQMNSLRAEDTAVYYCTRGTGYNWFDPWGQGTLVTVSS
VL: not shown
notes: Full length monoclonal IgG; also called MF3873 as IgG
[1]
  binding result: no binding (tested: 10 µg/ml)

B2: 5196×4327 DM-Fc bsAb (bispecific antibody, V domains shown)
VH 1: QVQLVQSGGGVVQPGRSLRLSCVASGFTFSSYGMHWVRQAPGKGLEWVAAIWYNARKQDYADSVKGRFTISRDNSKNTLYLQMNSLRAEDTAVYYCTRGTGYNWFDPWGQGTLVTVSS
VH 2: QVQLVQSGAEVKKPGASVKVSCKASGYTFTSYYMHWVRQAPGQGLEWMGIINPSGGSTSYAQKFQGRVTMTRDTSTSTVYMELSSLRSEDTAVYYCAKGTTGDWFDYWGQGTLVTVSS
VL: not shown
notes: Full length bispecific IgG with the lower hinge/CH2 changes at positions 235-236 (DM-Fc; L235G, G236R) and CH3 heterodimerisation (KK/DE variants) as in WO2014/051433
[2]
  binding result: binds
[3]
  Kd: 3 nM
[4]
  fold higher affinity of the CLEC12A arm than of the human CD3 binding arm: ~60 fold

B3: PG5626 (antibody, V domains shown)
VH: QVQLVQSGGGVVQPGRSLRLSCVASGFTFSSYGMHWVRQAPGKGLEWVAAIWYNARKQEYRDSVKGRFTISRDNSKNTLYLQMNSLRAEDTAVYYCTRGTGYNWFDPWGQGTLVTVSS
VL: not shown
notes: Monospecific IgG format; also called MF5626 in monospecific IgG format
[5]
  binding result: binds

B4: PG5196 (antibody, V domains shown)
VH: QVQLVQSGGGVVQPGRSLRLSCVASGFTFSSYGMHWVRQAPGKGLEWVAAIWYNARKQDYADSVKGRFTISRDNSKNTLYLQMNSLRAEDTAVYYCTRGTGYNWFDPWGQGTLVTVSS
VL: not shown
notes: Full length monoclonal IgG; also called PG5196 mAb; MF5196 as IgG
[6]
  binding result: binds

B5: PG5354 (antibody, V domains shown)
VH: QVQLVQSGGGVVQPGRSLRLSCAASGFTFSGYGMHWVRQAPGKGLEWVAQIYYDGSRTYYADSVKGRFTISRDNSKNTLYLQMNSLRAEDTAVYYCTRGTGYNWFDPWGQGTLVTVSS
VL: not shown
notes: Monospecific IgG format; also called MF5354 in monospecific IgG format
[7]
  binding result: binds

B6: PG5630 (antibody, V domains shown)
VH: QVQLVQSGGGVVQPGRSLRLSCVASGFTFSSYGMHWVRQAPGKGLEWVAAIWYNARKQDYADSVKGRFTISRDNSKNTLYLQMNSLRAEDTAVYYCTRGTGYNWYDPWGQGTLVTVSS
VL: not shown
notes: Monospecific IgG format; also called MF5630 in monospecific IgG format
[8]
  binding result: binds

B7: PG5616 (antibody, V domains shown)
VH: QVQLVQSGGGVVQPGRSLRLSCVASGFTFSSYGMHWVRQAPGKGLEWVAAIWYNARKQEYNDSVKGRFTISRDNSKNTLYLQMNSLRAEDTAVYYCTRGTGYNWFDPWGQGTLVTVSS
VL: not shown
notes: Monospecific IgG format; also called MF5616 in monospecific IgG format
[5]
  binding result: binds

B8: PG5694 (antibody, V domains shown)
VH: QVQLVQSGGGVVQPGRSLRLSCVASGFTFSSYGMHWVRQAPGKGLEWVAAIWYNARKQEYSDSVKGRFTISRDNSKNTLYLQMNSLRAEDTAVYYCTRGTGYNWFDPWGQGTLVTVSS
VL: not shown
notes: Monospecific IgG format; also called MF5694 in monospecific IgG format
[8]
  binding result: binds

B9: PG5351 (antibody, V domains shown)
VH: QVQLVQSGGGVVQPGRSLRLSCAASGFTFSSYGMHWVRQAPGKGLEWVAMIWYDGKNTYYADSVKGRFTISRDNSKNTLYLQMNSLRAEDTAVYYCTRGTGYNWFDPWGQGTLVTVSS
VL: not shown
notes: Monospecific IgG format; also called MF5351 in monospecific IgG format
[9]
  binding result: binds

B10: PG5648 (antibody, V domains shown)
VH: QVQLVQSGGGVVQPGRSLRLSCVASGFTFSSYGMHWVRQAPGKGLEWVAAIWYNARKQEYLDSVKGRFTISRDNSKNTLYLQMNSLRAEDTAVYYCTRGTGYNWFDPWGQGTLVTVSS
VL: not shown
notes: Monospecific IgG format; also called MF5648 in monospecific IgG format
[8]
  binding result: binds

B11: PG3905 (antibody, V domains shown)
VH: QVQLVQSGGGVVQPGRSLRLSCVASGFTFSSYGMHWVRQAPGKGLEWVAAIWYGGRKQDYADSVKGRFTISRDNSKNTLYLQMNSLRAEDTAVYYCTRGTGYNWFDPWGQGTLVTVSS
VL: not shown
notes: Full length monoclonal IgG; also called MF3905 as IgG
[1]
  binding result: no binding (tested: 10 µg/ml)

B12: PG5603 (antibody, V domains shown)
VH: QVQLVQSGGGVVQPGRSLRLSCVASGFTFSSYGMHWVRQAPGKGLEWVAAIWYNARKQEYIDSVKGRFTISRDNSKNTLYLQMNSLRAEDTAVYYCTRGTGYNWFDPWGQGTLVTVSS
VL: not shown
notes: Monospecific IgG format; also called MF5603 in monospecific IgG format
[8]
  binding result: binds

B13: PG5356 (antibody, V domains shown)
VH: QVQLVESGGGVVQPGRSLRLSCAASGFTFSKYGMHWVRQAPGKGLEWVAQIWHDGRKTYYADSVKGRFTISRDNSKNTLYLQMNSLRAEDTAVYYCTRGTGYNWFDPWGQGTLVTVSS
VL: not shown
notes: Monospecific IgG format; also called MF5356 in monospecific IgG format
[9]
  binding result: binds
